For this test, the target named is Murine ΔIBB-importin α1 (mouse, UniProt P52293 70-529). Kind of test: crystal structure.

B1: Pom121NLS(291-320), GST cleaved off (peptide)
chain: LKEKKKRTVAEEDQLHLDGQENKRRRHDSS
Take B1: the binding result is reported as “binds”.

The values above are taken from paper PMC4569319 (Molecular Biology of the Cell, 2015).
